The values that follow come from the domain aggregation screens of Martell et al. (2025).

A short description of the series: soluble fraction after stress (log2 fold change); higher = more stays soluble; pooled small domains, quantitative proteomics. Particulars: stress: pH 4. A digest of the protocol:
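Pooled custom libraries of small protein domains were stressed at pH 4 and then measured by high-throughput quantitative proteomics. The fold change in the amount of each domain that stays soluble after the acid stress serves as a measure of aggregation propensity. Fold changes are given on a log2 scale, and higher values mean more of the domain stayed soluble.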
Take “HMLIPTISVTKEGQLRFENIPVSWEELGTRLRDVSDLDKIKIYADAESDALTISEIMKTAANVGIVQFVLV”: the “soluble fraction (log2)” value was -1.13. As for “HMLIRKGVVSFFNDAKGYGFIKDLVTQESAFVHVNSLSETIKEHDKVTFEVEMGHKGANAVNVKLVK”, the figure is -0.72; as for “HMLIVLKPNVSQEEIDHIVDKIRSLSLEPHVSTGVQRTIITVIGDEDVIREQPLEALAGVESVKSILKP”, -0.144; as for “HMLKGTVKWFNESKGFGFIEQEEGKDVFVHYSAITGSGFKTLNEGDKVQFEIVDGPKGPAAANVSK”, -0.927.

For the sequence “HMLKKGDQVYIISGKDKGKLGVVSQIVSEERILVDGINLAKKHVKPNPNKNETGGVVEKEMPIHASNVMI”, the “soluble fraction (log2)” value was -0.702. As for “HMLKLTDRQKVILSILMSDGEKTASWIASQLGVGLRSVQLDLSYLRNNGFIKKASKSTHSAWIVLKK”, the figure is 0.205; as for “HMLKPIHKDWSPNGDAKEILLKAGITEEFIQKELPEFIMYWSERNEESDIWNSKFIAHIRRRWGRFS”, -1.23; as for “HMLKPVVLLGARGLTDAVEKEVERALDEHGLIKIHVPSDDREERDEIYTTLADKLNAARIQAIGKMLVLW”, -0.00783. The same measure for “HMLKSGSAVAQARDVILEKGVPVHINEILDALGKGDTREAKASLTSSLAAYVRRGEIFTRPAPNTFGLVEL”: -0.378; for “HMLKTADAIASVLLTRIQAGEFSAGRLPAERALSEAFSTTRITLREALGKLEAQGMIYRELRRGWFIA”: -1.3; for “HMLLFNPGEVLKGFVLQSGTNNRVLLQIGDSRVIADTQTPLKAGEQLVLRVEETGPKTILQILG”: 0.0206. The same measure for “HMLLGDYIQKLRNQRGLSQQEFADKLGIGRSTLANYEQNKRSPDYETLIEISKFFNVSIDELLGV”: -0.342; for “HMLLLASTPAEQTIIQLLAEGWRDGDQLQQRSHLSAADFSTALTMLEVNGSIKPLGANHWALTH”: -0.185; for “HMLLPANLTKSQRNIAERVARGQSNLEIAADLNITERTVKAHLTSIYEKTKTGNRLNLALLINLG”: -0.17. On to “HMLLPGEELRVMIIQEGKEYGQGVGYLDDGTMVVVEDGQRALNRTENVVVTKVLQTTAGRMIFAK”, for which the “soluble fraction (log2)” value was -0.975.

“HMLLQENRKLHSKLEELQLISRAKAVLIEYLKLTEPQAHRYIEKQAMDLGLTRPQVALNILKTYE”: the “soluble fraction (log2)” value turned out to be 0.21. As for “HMLLQTAVISTDIVNMRAEPTTNSSVIRKLTKGSDITINQEKDGWYKISDDQGNSGWIVTWAAKPT”, the figure is -0.0639. For the sequence “HMLMDVRVPDIIGVEINQAKEILTASSLLIGKITYVSLPEIEKDLVIETSVLAGRRVSAGTVIDITVNKE”, the “soluble fraction (log2)” value is -0.87. As for “HMLMKPQKTRDVLRYLKSIGWVRLRGGQGSHEIWGLPDGSIRAVIPAGHREISAGVLMQLKRAGVDVPTQW”, the figure is -0.0803; as for “HMLMLTPGQIAQTLDVSTATVRRWSARYARHLSPNTPGKKRSYTVDDLAVLTRVRDLSATGTPLAQIDQAL”, 0.151. As for “HMLMLTPGQVSNSLNVSTATVRRWSARFARHLSPQPPNRKRSYTPDDLATLARVRDLSASGTSLAQIDIAL”, the figure is -0.29; as for “HMLMRSPDFLIGWFQNLVAKRETFNDQVQAKNLIEAGKQHIQGEDFDRLLEVNRRLFSLLPQREQE”, -1.27. “HMLNAPFGFRIEDDTLIPIPEEAKVVRQIFRYYLQGMGFGKIAQELNGQDVPGKPWGKERIKYILSNEKYI”: the “soluble fraction (log2)” value is -0.0934.

Regarding “HMLNERQKKIIKILKDNKNWMTGKELSEFLNVSDRTIRSDIEYINRYNNALIESNVKNGYHLNFE”, the “soluble fraction (log2)” value is -0.0338. As for “HMLNIVTIFEEQFGRPLSPIELNIIKDWKESDYSDEMIVKALKEAVKSQVLNFRYVEGILNNWAKNG”, the figure is -1.08; as for “HMLNLNEAEKSIYVLIKKNESNNLNKVKEDSNLSNKAWDKGIKNLVKNNLVKVVKSNEGLFIQLV”, 0.196; as for “HMLNLNILTDKEKFIAKLISRGLSDSLIAKELYISISTVRSHVNSIYGKTNIKNRSHLASSFLYFELGNLL”, -0.0771. The same measure for “HMLNPMILLTKGGENIRLDKFLSSHLSDLSRTQIQKMVKEGLVLVNGEPSKVGLKLDGSETIQYTLPK”: 0.254; for “HMLNSISIKTNKKIDFLEKNEHLVNFVYEKETMEHIYNLSYENKKDLQELQNKLSDIEGIIKINTDL”: -2.18; for “HMLPDVSITGHIFIRSGSRLNRIFVGESTYHVGDMLDGKWLIESINSDSLELRSGTQTTELPL”: -0.066. The same measure for “HMLPDYLIELKKKADSGDAVSQNDIGNIYLYGLPRVNIYPDEKNIGIGIDYLYKAAWQDQVNAMTTI”: -0.397; for “HMLPELQPGQTFSARIQQALPDNTYRALVAGKQLTLQLPEGAKAGDELELVVLDRSARVIIARQVD”: 0.336. Regarding “HMLPGERFKVKIAQAGKEKKQGIGYLNDGTMVVIENGIEKVGEEVEAVVIKVIQSSAGKIIFSEVAK”, the “soluble fraction (log2)” value worked out at 0.0394. Turning to “HMLPGKEIPLPEFLREAFARNEPALENFQNLAPSYRRQYILWITSAKTPETVQKRISESIGLLKENRKLGM”, the “soluble fraction (log2)” value was -0.0786. Regarding “HMLPGLGPIERAQFMLQAIPGISPTRSAALIDKFGSIAGIAQASIKDIQTIEGIGKKTATTLYEVLNAG”, the “soluble fraction (log2)” value was -0.223. As for “HMLPISGDDRDALDMAALILKQYDSLPILKEFANVVTKLQTVLDGVVSNSIEARRQMIQFEE”, the figure is -0.48; as for “HMLPITPGQKYKFVVKSAEEAAAIIRDKLGEMAQVISVRQVEGEGLARFLKSPKLEIIAQVPVA”, -0.349.

As to “HMLPLGSNEYETAVIKHLASGVQDADEIQRLTGIDQTSLNTALTMLELAGTIRPLGNNHWTL”, the “soluble fraction (log2)” value was found to be 0.22. For the sequence “HMLPLHFIEIVSLKKIDTLTKRKELINYAFSKNEKTYIYKLAFKKKSELDNLYKEINLFNEIINIDIRHS”, the “soluble fraction (log2)” value is -0.943. “HMLPLPRFASLDSSEANLRAGPGKDYPILWVYQRKGLPVEIIQEFDTWRRIRDRDGTVGWVQQNLL”: the “soluble fraction (log2)” value was -0.568. As for “HMLPNIKSEMEILGDNAKARLEAAELWSKKYLSNEAYDTMSKLATTADGVKAIEEIMNITKS”, the figure is -0.274. The same measure for “HMLPSELLAQQRIVVQPGHNLWRIARATYGRGARYTVIYQANREQIADPNRIFPGQVFALPAA”: -0.227.

As for “HMLPSMENWLGELSFWQTPWWERRDFSTFDNIAQSKEELDEFMSRDDNGAILERMQDPINTIEAE”, the “soluble fraction (log2)” value is -0.682. The same measure for “HMLQGKVSFFNDEKGYGFIKDNNSKDSYFVHINKVEGEIAEGDKVTFELEKGPKGLVAANVKR”: -0.145; for “HMLQIGDEEFIENIVKQVIDENQKAVDDYKKGKEKVMAFLIGQVMKKTKGKVNSEIVEKTIKKL”: -0.565; for “HMLQKEVHQQIQQALRALPYHQRTAIVLYYYEGMSVKEIAQATGSMQGTVQSRLFFARKKLRPILESILKK”: -2.39. The same measure for “HMLQQNRAVEAEQLARKGLSYAQSNIQQAALWRLVAEATEQQGKVDAALNAKNKAMQLEMAG”: 0.353; for “HMLRTLSTSEFAEAIGISESSARRLADSGDLRIRRTKGGHRKIPAEEAIRYAREIQATVVRPDLLGLST”: -0.151.

“HMLRVVSTRQAFDIVRGWADAHPQDPEHNKTLDELEELAKKEVWDDWSRTNEIAERLNALLVSIGANVRTA”: the “soluble fraction (log2)” value was -0.314. The same measure for “HMLSDEEKMAALNEQARQRGFTISPGVLPYLITHYQRDMHSLSMILDALDRYSLQTKRTITLPLLHDLLQQ”: -0.228; for “HMLSKEFRFFTYLLESYAQHKNTTAGAVLKTLDEKGLTDFVYKMYDLYHVEAIENAYMDLDSLIATGKPA”: -0.989; for “HMLSKGDRVSWDTPQGRTQGEVVEKKTKDFEHDGQKFTASDDDPAFIVKSEKSGAEAAHKGSALNK”: -0.0554. On to “HMLSLGIMEADMLKTGKHTISGISKATPEQRQKIDSDIEELKKKYPEKNITSKVENDNLIVESGVTAP”, for which the “soluble fraction (log2)” value worked out at 0.0639. The same measure for “HMLSNKIEQLRKEKGYTFAKLSELSGISTGRLSDLATGKRNNPTMDTLIKLADALDVTLDELVGR”: -0.328. The same measure for “HMLSNYIGMTLGEAKRNLGQGVNITVNGPNNDNAEVTGQDPTSGSSFDKSKDTITLTT”: 0.225. The same measure for “HMLSPAQSLLLRTAARRPDGRVIPPDTLRGGARVKVLTSLLQRGWIEPVDGGHVLTDAGYAAIG”: not below 0.43. Take “HMLSTNDYNENKNKLIKDFEIKFIIKHLKLNKGNVAATARSINFHPVSLRQKIAKLGIDVDEVMAG”: the “soluble fraction (log2)” value is -0.341. As for “HMLSTQEYIKKNIENGSWKVGEKIPSENNLTEILGVSRASIRVAIQQFIALDVLNSIHGKGTFVKTNNIMG”, the figure is 0.207; as for “HMLTALTDREEEILVLLAHNLSNKEIAKRLNLSVNTVRNHTSHIYEKLNVTSRRKAITLAQSLHLLPP”, -0.067; as for “HMLTAPMPGIVRQVNVDTGQKVRKGQPLMVLEAMKMEHQIIAPQAGKIEAIHYNEGDRVEMGSVLISIF”, -0.538.

“HMLTAPMPGIVTEILVKEGQRVRSGQPLMILEAMKMEHQVTAPKSGQIEKIYFSEGEKVDMGSDLLSIS”: the “soluble fraction (log2)” value is -0.0146. The same measure for “HMLTEEVEISLMDMTKPTQPATIKTTATIQKGATTVMPKQIKMPEGYEFYGNYKMDQPFELTMTFVVKKI”: -0.0427; for “HMLTGESDNVEKSINKLGTENLALADQTNMGFKGTFINSGHGMAIVVKTGMQTELGKIASMIQIA”: 0.22.

On to “HMLTGISALKPTEAFPDEIFYEIFEIEDNIERTQYIESLRNTARQLKRVTEFNNLYKSFVLDYAQRQKQ”, for which the “soluble fraction (log2)” value was -0.375. As for “HMLTKAEEQVMDYLWKLEKAFVKDILDEFPEPKPAYTTVSTMVRILEKKGMVGYTAYGKNHQYYPL”, the “soluble fraction (log2)” value was -1.18. The same measure for “HMLTKSELVFDTLKKRIIDGELEPGTELVISRISEEFNVSTIPVREAIKTLASEGLVEMEPHKSAKVAE”: -0.0422. The same measure for “HMLTKSVLGNQIKVLRLEKGLSQEEFGAPVDLSRSAVSQIESGQMYPSLESIGKIVKYYSTSWDNLVG”: -0.162; for “HMLTLDEKRRLQIMRVQVALTSLGLYNGRVDGVLNAETKLGLEFFQDLKGLPKSGTMTTPTLNALGVPA”: -0.347. The same measure for “HMLTLSGPEHAVVRALWPEPELDFDVLIRKTGLPSAQLMTLAMQLEMKKIIRRLPGRRLALMDDIRR”: -0.716.
